# Results published in patent US20030158133.
# Assays:
# [1] = tested on: Flag-tagged rtPDE3B containing its full ORF
# [2] = tested on: Flag-tagged rtPDE3B-137 (full ORF) S421A
# [3] = tested on: Flag-tagged rtPDE3B-137 (full ORF) S421D
substance,measurement,setting,value
PK-A (cAMP-dependent protein kinase),"stimulation of cGMP hydrolytic activity by PK-A (0.03 µM cGMP, with or without PK-A and ATP)",[1],caused a much greater stimulation of activity in S421D than in S421A or the wild-type rtPDE3B
same,"stimulation of cGMP hydrolytic activity by PK-A (0.03 µM cGMP, with or without PK-A and ATP)",[2],caused a much greater stimulation of activity in S421D than in S421A or the wild-type rtPDE3B
same,"stimulation of cGMP hydrolytic activity by PK-A (0.03 µM cGMP, with or without PK-A and ATP)",[3],caused a much greater stimulation of activity in S421D than in S421A or the wild-type rtPDE3B
